pKd: −log10 of the molar value.
Molecular target: Hepatocyte growth factor/scatter factor (HGF) (UniProt P14210+P14210)
Assay: FP
Conditions: 2'-F pyrimidines

Sequence of Hepatocyte growth factor/scatter factor (HGF) (P14210 32-494, chain 1 of 2): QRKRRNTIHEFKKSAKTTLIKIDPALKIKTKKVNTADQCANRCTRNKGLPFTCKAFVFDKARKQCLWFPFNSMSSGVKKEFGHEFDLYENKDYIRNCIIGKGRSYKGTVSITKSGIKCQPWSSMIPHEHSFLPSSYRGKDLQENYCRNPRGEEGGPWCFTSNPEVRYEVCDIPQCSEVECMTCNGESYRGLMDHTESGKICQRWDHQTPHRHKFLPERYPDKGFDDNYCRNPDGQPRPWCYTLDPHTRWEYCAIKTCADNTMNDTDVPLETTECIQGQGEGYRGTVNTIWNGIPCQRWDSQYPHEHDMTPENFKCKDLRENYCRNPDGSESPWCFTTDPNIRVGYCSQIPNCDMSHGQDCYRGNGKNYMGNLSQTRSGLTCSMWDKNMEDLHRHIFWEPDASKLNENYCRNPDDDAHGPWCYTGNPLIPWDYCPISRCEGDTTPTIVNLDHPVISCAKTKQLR
Sequence of Hepatocyte growth factor/scatter factor (HGF) (P14210 495-728, chain 2 of 2): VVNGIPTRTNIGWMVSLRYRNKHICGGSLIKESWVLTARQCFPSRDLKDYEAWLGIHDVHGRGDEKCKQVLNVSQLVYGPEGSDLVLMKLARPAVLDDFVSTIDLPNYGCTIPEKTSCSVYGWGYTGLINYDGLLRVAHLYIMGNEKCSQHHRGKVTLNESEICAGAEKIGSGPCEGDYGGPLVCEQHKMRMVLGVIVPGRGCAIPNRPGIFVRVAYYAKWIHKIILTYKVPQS

GAGAGNUCCUAUUUAUGACAUCCCAUGCCCCCA [Tr65]
pKd: 8.85

— patent publication US20030049644
